In the supplement of paper PMC9876800:

Test system: peptide library, one residue held at a place counted from the S/T acceptor
Experiment: relative phosphorylation of the sub-library (ratio to the mean residue at this position); higher = residue favoured
Details: human
How it was run: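 In 384-well plates, purified recombinant kinases (human or orthologue constructs) were incubated for 90 min under kinase-specific conditions with 50 μM biotinylated degenerate peptide sub-libraries and 50 μM ATP spiked with γ-32P-ATP. Each sub-library fixed a single residue at one position around a central Ser/Thr. Relative sub-library phosphorylation, measured by phosphorimaging and densitometry of streptavidin membrane spots, is given as a ratio to the mean residue at that position.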

Sequence of STK26, construct: Full length (Q9P289 whole entry, looked up): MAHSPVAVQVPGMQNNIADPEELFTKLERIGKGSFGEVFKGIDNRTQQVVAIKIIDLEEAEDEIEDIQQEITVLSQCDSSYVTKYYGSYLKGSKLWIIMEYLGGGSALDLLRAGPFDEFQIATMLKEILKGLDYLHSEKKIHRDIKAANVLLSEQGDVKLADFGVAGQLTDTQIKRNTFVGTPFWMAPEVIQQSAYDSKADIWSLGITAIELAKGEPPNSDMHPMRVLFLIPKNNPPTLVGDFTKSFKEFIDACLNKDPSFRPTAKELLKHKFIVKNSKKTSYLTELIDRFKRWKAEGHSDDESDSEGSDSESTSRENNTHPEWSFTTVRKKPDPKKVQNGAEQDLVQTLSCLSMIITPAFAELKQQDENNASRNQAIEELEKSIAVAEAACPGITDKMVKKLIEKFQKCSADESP

STK26, construct: Full length (from UniProt Q9P289)
relative phosphorylation
Details | at +1 | at +2 | at +3 | at +4 | at -1 | at -2 | at -3 | at -4 | at -5
A fixed | 0.593 | 0.524 | 0.871 | 0.922 | 0.76 | 0.947 | 0.809 | 1.21 | 1.23
D fixed | 0.265 | 0.606 | 0.583 | 0.538 | 0.894 | 0.424 | 0.625 | 0.745 | 0.706
E fixed | 0.21 | 0.519 | 0.525 | 0.538 | 0.475 | 0.373 | 0.616 | 0.797 | 0.653
F fixed | 1.24 | 0.246 | 0.869 | 0.625 | 0.499 | 0.972 | 0.754 | 0.771 | 0.777
G fixed | 0.583 | 2.19 | 1.44 | 0.991 | 2.31 | 1.21 | 1.09 | 1.09 | 1.03
H fixed | 0.805 | 1.06 | 1 | 1.06 | 1.11 | 1.35 | 1.01 | 1.17 | 1.05
I fixed | 1.56 | 0.511 | 0.798 | 0.971 | 0.397 | 0.759 | 0.711 | 0.83 | 0.929
K fixed | 0.666 | 3.49 | 2.55 | 2.01 | 2.16 | 2.08 | 2.31 | 1.64 | 1.92
L fixed | 1.78 | 0.402 | 1.05 | 0.77 | 0.78 | 0.549 | 0.665 | 0.682 | 0.783
M fixed | 1.3 | 0.358 | 0.667 | 0.818 | 0.666 | 0.613 | 0.79 | 0.773 | 0.74
N fixed | 0.53 | 1.27 | 0.771 | 0.862 | 1.39 | 1.15 | 1.15 | 1.08 | 0.994
P fixed | 0.372 | 1.03 | 0.636 | 0.828 | 0.551 | 0.659 | 0.739 | 0.879 | 0.791
Q fixed | 0.642 | 0.774 | 0.741 | 0.932 | 0.938 | 0.882 | 0.903 | 0.939 | 1
R fixed | 0.722 | 2.77 | 2.16 | 1.89 | 2.15 | 2.03 | 2.21 | 1.64 | 1.61
V fixed | 1.4 | 0.517 | 0.751 | 0.874 | 0.483 | 0.942 | 0.846 | 0.954 | 1.01
W fixed | 3.2 | 0.394 | 0.814 | 1.38 | 0.821 | 1.01 | 0.943 | 0.941 | 0.969
Y fixed | 1.12 | 0.326 | 0.767 | 0.994 | 0.607 | 1.05 | 0.824 | 0.876 | 0.812
pThr fixed | 0.722 | 0.707 | 0.584 | 0.815 | 0.813 | 1.05 | 0.981 | 0.958 | 0.86
pTyr fixed | 0.604 | 0.368 | 0.714 | 0.54 | 1.2 | 1.19 | 0.996 | 0.69 | 0.834
